The target in data set [1] is T1, ΔDEAD human Dicer (deletion of amino acids 1-604 spanning the entire DExD/H-box domain) (human, UniProt Q9UPY3 605-1922).
T1 construct: The DEAD-F primer adds an initiator Met; also called ΔDEAD hDcr; DExD/H-box deletion protein
T1 sequence: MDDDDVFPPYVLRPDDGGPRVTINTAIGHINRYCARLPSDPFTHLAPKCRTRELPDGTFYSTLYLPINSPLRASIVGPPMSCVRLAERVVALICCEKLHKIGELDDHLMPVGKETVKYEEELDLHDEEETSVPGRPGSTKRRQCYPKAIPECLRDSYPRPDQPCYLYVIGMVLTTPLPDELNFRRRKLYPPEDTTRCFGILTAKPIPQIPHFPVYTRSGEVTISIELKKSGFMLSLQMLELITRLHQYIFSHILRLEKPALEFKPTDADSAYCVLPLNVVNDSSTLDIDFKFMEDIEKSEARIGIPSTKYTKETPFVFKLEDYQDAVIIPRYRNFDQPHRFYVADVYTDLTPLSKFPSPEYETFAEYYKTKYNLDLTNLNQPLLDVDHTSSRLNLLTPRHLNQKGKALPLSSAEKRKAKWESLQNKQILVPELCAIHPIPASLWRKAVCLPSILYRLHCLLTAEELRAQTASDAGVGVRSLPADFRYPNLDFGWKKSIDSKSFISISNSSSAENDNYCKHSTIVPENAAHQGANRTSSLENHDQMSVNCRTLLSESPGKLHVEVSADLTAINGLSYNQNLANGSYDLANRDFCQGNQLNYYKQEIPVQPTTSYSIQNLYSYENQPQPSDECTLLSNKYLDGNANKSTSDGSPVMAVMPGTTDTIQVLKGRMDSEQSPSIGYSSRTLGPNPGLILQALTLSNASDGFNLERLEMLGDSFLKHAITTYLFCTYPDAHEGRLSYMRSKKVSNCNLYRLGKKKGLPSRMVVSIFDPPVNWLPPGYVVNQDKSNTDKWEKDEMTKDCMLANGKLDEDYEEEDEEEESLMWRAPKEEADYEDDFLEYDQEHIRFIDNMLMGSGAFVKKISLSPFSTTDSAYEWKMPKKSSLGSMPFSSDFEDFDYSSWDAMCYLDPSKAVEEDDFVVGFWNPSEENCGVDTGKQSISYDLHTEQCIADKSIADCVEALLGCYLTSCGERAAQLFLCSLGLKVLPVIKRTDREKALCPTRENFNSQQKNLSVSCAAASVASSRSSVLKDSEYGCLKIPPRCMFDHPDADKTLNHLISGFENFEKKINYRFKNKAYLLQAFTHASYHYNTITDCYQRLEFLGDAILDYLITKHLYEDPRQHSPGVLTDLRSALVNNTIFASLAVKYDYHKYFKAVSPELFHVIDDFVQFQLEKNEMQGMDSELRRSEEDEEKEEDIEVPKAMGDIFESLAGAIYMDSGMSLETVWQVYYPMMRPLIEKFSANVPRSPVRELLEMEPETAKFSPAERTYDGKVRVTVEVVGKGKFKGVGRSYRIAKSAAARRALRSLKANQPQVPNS
Put plainly: size exclusion chromatography with SDS-PAGE of fractions after 60 min pre-incubation on ice. How it is done:
FIGS. 6A and 6B. Interaction of human Dicer with TRBP mediated by DEAD domain A, TRBP interacts with hDcr through DEAD domain. Prior to size exclusion chromatography, 2.5 nmol of each human Dicer protein and 9.0 nmol of TRBP were pre-incubated on ice for 60 minutes. Left panel, a chromatogram (top) of wild-type human Dicer (flhDcr) with TRBP and SDS-PAGE gel analysis of fractions (bottom); Right panel, a chromatogram (top) of ΔDEAD human Dicer (ΔDEAD) with TRBP and SDS-PAGE gel analysis of fractions (bottom). B, Binding of TRBP to hDcr increased its dicing activity. A multiple-turnover assay for 37ab cleavage using 100 nM dsRNA and 5 nM hDcr or hDcr-TRBP.
Background: In gel filtration, larger molecules generally elute earlier.

In a further data set the target is T2, TRBP, Q15633.
T2 chain: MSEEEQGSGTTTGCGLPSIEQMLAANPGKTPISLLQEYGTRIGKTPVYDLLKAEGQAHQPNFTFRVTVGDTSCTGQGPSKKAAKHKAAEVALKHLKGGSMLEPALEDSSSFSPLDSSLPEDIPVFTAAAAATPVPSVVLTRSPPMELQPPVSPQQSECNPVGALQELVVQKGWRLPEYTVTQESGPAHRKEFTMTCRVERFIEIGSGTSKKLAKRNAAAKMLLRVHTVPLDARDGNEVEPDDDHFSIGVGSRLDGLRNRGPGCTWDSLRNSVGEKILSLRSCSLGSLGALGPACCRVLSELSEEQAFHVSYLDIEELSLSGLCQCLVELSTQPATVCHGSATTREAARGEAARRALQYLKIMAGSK

Consider two molecules from US8440430, “Modified dicer polypeptide and methods of use thereof” (The Regents of the University of California).

B1: TRBP (other, human, UniProt Q15633 1-366, looked up)
chain: T2 chain
notes: also called human partner protein TRBP
Regarding B1, in data set [1], the binding result is given as “no binding”.

B2: full-length wild-type human Dicer (hDcr), accession no. NP-803187 (protein)
chain: MKSPALQPLSMAGLQLMTPASSPMGPFFGLPWQQEAIHDNIYTPRKYQVELLEAALDHNTIVCLNTGSGKTFIAVLLTKELSYQIRGDFSRNGKRTVFLVNSANQVAQQVSAVRTHSDLKVGEYSNLEVNASWTKERWNQEFTKHQVLIMTCYVALNVLKNGYLSLSDINLLVFDECHLAILDHPYREIMKLCENCPSCPRILGLTASILNGKCDPEELEEKIQKLEKILKSNAETATDLVVLDRYTSQPCEIVVDCGPFTDRSGLYERLLMELEEALNFINDCNISVHSKERDSTLISKQILSDCRAVLVVLGPWCADKVAGMMVRELQKYIKHEQEELHRKFLLFTDTFLRKIHALCEEHFSPASLDLKFVTPKVIKLLEILRKYKPYERQQFESVEWYNNRNQDNYVSWSDSEDDDEDEEIEEKEKPETNFPSPFTNILCGIIFVERRYTAVVLNRLIKEAGKQDPELAYISSNFITGHGIGKNQPRNKQMEAEFRKQEEVLRKFRAHETNLLIATSIVEEGVDIPKCNLVVRFDLPTEYRSYVQSKGRARAPISNYIMLADTDKIKSFEEDLKTYKAIEKILRNKCSKSVDTGETDIDPVMDDDDVFPPYVLRPDDGGPRVTINTAIGHINRYCARLPSDPFTHLAPKCRTRELPDGTFYSTLYLPINSPLRASIVGPPMSCVRLAERVVALICCEKLHKIGELDDHLMPVGKETVKYEEELDLHDEEETSVPGRPGSTKRRQCYPKAIPECLRDSYPRPDQPCYLYVIGMVLTTPLPDELNFRRRKLYPPEDTTRCFGILTAKPIPQIPHFPVYTRSGEVTISIELKKSGFMLSLQMLELITRLHQYIFSHILRLEKPALEFKPTDADSAYCVLPLNVVNDSSTLDIDFKFMEDIEKSEARIGIPSTKYTKETPFVFKLEDYQDAVIIPRYRNFDQPHRFYVADVYTDLTPLSKFPSPEYETFAEYYKTKYNLDLTNLNQPLLDVDHTSSRLNLLTPRHLNQKGKALPLSSAEKRKAKWESLQNKQILVPELCAIHPIPASLWRKAVCLPSILYRLHCLLTAEELRAQTASDAGVGVRSLPADFRYPNLDFGWKKSIDSKSFISISNSSSAENDNYCKHSTIVPENAAHQGANRTSSLENHDQMSVNCRTLLSESPGKLHVEVSADLTAINGLSYNQNLANGSYDLANRDFCQGNQLNYYKQEIPVQPTTSYSIQNLYSYENQPQPSDECTLLSNKYLDGNANKSTSDGSPVMAVMPGTTDTIQVLKGRMDSEQSPSIGYSSRTLGPNPGLILQALTLSNASDGFNLERLEMLGDSFLKHAITTYLFCTYPDAHEGRLSYMRSKKVSNCNLYRLGKKKGLPSRMVVSIFDPPVNWLPPGYVVNQDKSNTDKWEKDEMTKDCMLANGKLDEDYEEEDEEEESLMWRAPKEEADYEDDFLEYDQEHIRFIDNMLMGSGAFVKKISLSPFSTTDSAYEWKMPKKSSLGSMPFSSDFEDFDYSSWDAMCYLDPSKAVEEDDFVVGFWNPSEENCGVDTGKQSISYDLHTEQCIADKSIADCVEALLGCYLTSCGERAAQLFLCSLGLKVLPVIKRTDREKALCPTRENFNSQQKNLSVSCAAASVASSRSSVLKDSEYGCLKIPPRCMFDHPDADKTLNHLISGFENFEKKINYRFKNKAYLLQAFTHASYHYNTITDCYQRLEFLGDAILDYLITKHLYEDPRQHSPGVLTDLRSALVNNTIFASLAVKYDYHKYFKAVSPELFHVIDDFVQFQLEKNEMQGMDSELRRSEEDEEKEEDIEVPKAMGDIFESLAGAIYMDSGMSLETVWQVYYPMMRPLIEKFSANVPRSPVRELLEMEPETAKFSPAERTYDGKVRVTVEVVGKGKFKGVGRSYRIAKSAAARRALRSLKANQPQVPNS
Turning to B2, the “cleavage rate in a multiple-turnover assay for 37ab cleavage (100 nM dsRNA, 5 nM hDcr or hDcr-TRBP)” value with TRBP, Q15633 was “increased the cleavage rate of the resulting protein complex”.
